# Where no end group is shown, it is not given here.
# Biological target: monoclonal antibody mAB 198
# Assay: peptide microarray, fluorescence, cyclic peptide
row,Binder,relative signal [%]
1,"RLRTNPADY (also: cyclic peptide, ring type and places not given here)",8.6
2,"LRFNPAD (also: cyclic peptide, mode of cyclisation not given here) [LRFNPAD, cyclic mimotope]",8.6
3,"GSLRWNPADYT (also: cyclic peptide, mode of cyclisation not given here)",8.7
4,"GGSLRLNPADY (also: cyclic peptide, mode of cyclisation not given here)",8.5
5,"NPADYGN (also: cyclic peptide, mode of cyclisation not given here) [NPADYGN, cyclic mimotope]",8.7
